From patent US9394371 (Scripps Research, dated 2016)

B1: 3B1 (antibody, V domains shown)
VH: QVQLQESGPGLVKPSETLSLTCTVSGGSISSYYWSWIRQPPGKGLEWIGYIYYSGNTNSNPSLKSRVTISVDTSKNQFSLKLSSVTAADTAVYYCARTYYDSSGYYYRAFDIWGQGTMVTVSS
VL: DIQMTQSPSSLSASEGDRVTITCRASQGIRNDLGWYQQKPGKAPKRLIYAASSLQSGVPLRFSGSGSGTEFTLTISSLQPEDFATYYCLQYNSYPWTFGQGTKVEIKR
B2: AP1-15B4 (antibody, V domains shown)
VH: EVHLVESGGDLVKPGGSLKLSCAASGFAFSDFAMSWVRQTPEKRLEWVAIIKSDDSYTYYPDSVRDRFTISRDNARNTLYLQMTSLRSEDTALYYCTKIYDAYFYAMDYWGQGTSVTVSS
VL: DIVRTQSPLSLSVSLGDQASISCRSSQSLLHSNGNTYLHWYLQKPGQSPKLLIYKVSNRFSGVPDRFSGSGSGTDFTLKISILEAEDLGIYFCSQSTHFPTFGGGTKLEIK
notes: also called mAb AP1-15B4; AP1 Sups 15B4

Key:
[1] = biological target: AIP-1 (S. aureus I native cyclic signaling peptide) (Staphylococcus aureus); assay: competition ELISA on AP1-BSA
[2] = biological target: T1, AIP-3 (S. aureus III native cyclic signaling peptide) (Staphylococcus aureus); assay: competition ELISA on AP1-BSA
T1 construct: also called AIP3 wt; AIP-III

Binder | Kd [1] | Kd [2]
B1 | ~6 µM | –
B2 | – | ~1 µM
